# Results taken from the supplement of paper PMC9732359.
# ± gives the uncertainty stated by the source.
# Experiment: protein stability index of a GFP-peptide fusion (yeast GPS) (PSI 1-4); higher = more stable; sorted into four equal gates, so the index is relative within each strain
# Outline: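 Each library plasmid carries Cherry plus GFP with a tiled 17-residue yeast protein peptide fused downstream, and the pooled library was carried in yeast. Mid-log cultures in leucine-free medium were sorted into four equal gates by GFP/Cherry ratio. Reads from Illumina sequencing of PCR-amplified plasmids from each gate were assigned to strains by barcodes. Per peptide, the protein stability index was computed as the summed products of gate read frequency and gate number.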
Sequence,protein stability index (doa10∆),protein stability index (pdr5∆),protein stability index (san1∆),protein stability index (ubr1∆)
LELPLCPYCYKKRREYF [SIR2],2.46 ± 0.053,2.06 ± 0.057,1.95 ± 0.07,1.98 ± 0.077
AKSISTSAKEPSENDVF [RPO31],2.99 ± 0.072,3.06 ± 0.069,2.56 ± 0.083,3.2 ± 0.09
ILGIAGEDFAVLAGDTR [PRE7],3.65 ± 0.22,3.2 ± 0.23,3.32 ± 0.23,3.64 ± 0.076
GLVHDLCHPKKEKYGLA [SMC1],2.59 ± 0.11,2.84 ± 0.12,2.81 ± 0.29,2.17 ± 0.083
VVMAMYNPKMIDDRDYV [RET1],3.36 ± 0.27,–,–,3.45 ± 0.27
AESEWNGVNVQTLKGVG [RPC37],1.23 ± 0.075,1.79 ± 0.14,–,1.13 ± 0.18
FGAKMSRTLILSILNEI [SIN4],1.84 ± 0.063,1.42 ± 0.044,1.36 ± 0.088,1.68 ± 0.039
MGLGKTLQTISFLGYLR [ISW2],2.45 ± 0.044,2.06 ± 0.054,1.67 ± 0.087,2.13 ± 0.056
EDTLSGYDPIVSTRAID [PRP28],2.51 ± 0.2,2.67 ± 0.12,3.13 ± 0.15,3.16 ± 0.093
EYQIVYYNPQAGTKITI [RGR1],2.15 ± 0.13,2.1 ± 0.22,2.12 ± 0.13,2.45 ± 0.1
GYVETPRGLRSLTTVWA [RPL3],1.75 ± 0.29,–,–,–
RNETSVDEEDENGTHND [YCG1],3.08 ± 0.26,–,–,–
HMDYDGNIVKEFENKFQ [YMR129W/POM152],3.28 ± 0.069,3.33 ± 0.082,3.36 ± 0.049,3.22 ± 0.055
KSNGSSDDDNIGQSEEL [ISW2],3.3 ± 0.1,3.44 ± 0.09,3.31 ± 0.08,3.42 ± 0.12
RPNGRKDHDLKIPLPEV [POP1],3.06 ± 0.055,3.18 ± 0.058,2.99 ± 0.073,3.15 ± 0.065
DNEEASVKLDLQDDEDH [BRN1],2.99 ± 0.1,3.45 ± 0.084,3.05 ± 0.071,3.35 ± 0.097
PNNASSHISASASPHLA [SNF2],2.53 ± 0.046,2.66 ± 0.044,2.51 ± 0.069,2.88 ± 0.039
TSSRGRDHKSYSQSPPR [SMC4],2.65 ± 0.046,2.81 ± 0.056,2.59 ± 0.088,2.83 ± 0.038
FTLWWSPTINRANVYVG [PRP8],1.99 ± 0.089,1.88 ± 0.07,1.61 ± 0.15,2.04 ± 0.051
YIEDGRNPDIYTREFVE [NUT2],3.39 ± 0.066,3.38 ± 0.054,3.13 ± 0.044,3.33 ± 0.04
STGAADGGYNAQLAKAK [SMC2],3.31 ± 0.15,3.47 ± 0.11,3.22 ± 0.084,3.3 ± 0.13
NSQERVQDLGSAISVTN [SIR2],2.45 ± 0.16,3.11 ± 0.11,3.01 ± 0.092,3.25 ± 0.19
NGITLALIDAGISMFDY [SKI6],1.38 ± 0.068,1.51 ± 0.042,1.59 ± 0.14,1.56 ± 0.038
LSEYLTKFQTTDRESYP [YCS4],–,3.28 ± 0.2,–,2.94 ± 0.14
FNITDNGVRALFHSCTR [GRR1],1.53 ± 0.11,2.52 ± 0.088,1.09 ± 0.15,2.35 ± 0.054
RLENKLSEIESLDEILL [SRP68],2.97 ± 0.095,2.99 ± 0.11,2.92 ± 0.11,3 ± 0.085
RESRIVSTEGNVPQTLA [RPL21A],2.13 ± 0.08,2.25 ± 0.082,2.94 ± 0.1,2.3 ± 0.095
YGYPSYSTIRQLVYKRG [RPL7A],1.27 ± 0.061,1.52 ± 0.046,1.25 ± 0.12,1.41 ± 0.047
